This passage reports Kd results from patent US20240270846A1 (published 2024).

As a reminder, the Kd is the equilibrium constant for the complex coming apart. High values mean weaker binding, low ones tighter binding.

Sequences and labels used below:
B1: NNS6f29 (CE115HA340 with IYYPTN inserted between Kabat positions 99 and 100), one-arm antibody (antibody)
chain 1: QVQLVESGGGLVQPGRSLRLSCAASGFTFSNAWMHWVRQAPGKGLEWVAQIKDKSNNYATYYAESVKGRFTISRDDSKNSIYLQMNSLKTEDTAVYYCRYVHYAAIYYPTNYYGVDAWGQGTTVTVSSASTKGPSVFPLAPSSKSTSGGTAALGCLVKDYFPEPVTVSWNSGALTSGVHTFPAVLQSSGLYSLSSVVTVPSSSLGTQTYICNVNHKPSNTKVDKKVEPKSCDKTHTCPPCPAPEAAGGPSVFLFPPKPKDTLMISRTPEVTCVVVDVSHEDPEVKFNWYVDGVEVHNAKTKPREEQYASTYRVVSVLTVLHQDWLNGKEYKCKVSNKALPAPIEKTISKAKGQPREPQVYTLPPSRCELTKNQVSLSCAVKGFYPSDIAVEWESNGQPENNYKTTPPVLDSDGSFFLVSKLTVDKSRWQQGNVFSCSVMHEALHNHYTQKSLSLSPDYKDDDDK
chain 2: EPKSSDKTHTCPPCPAPELLGGPSVFLFPPKPKDTLMISRTPEVTCVVVDVSHEDPEVKFNWYVDGVEVHNAKTKPREEQYNSTYRVVSVLTVLHQDWLNGKEYKCKVSNKALPAPIEKTISKAKGQPREPQVCTLPPSRDELTKNQVSLWCLVKGFYPSDIAVEWESNGQPENNYKTTPPVLDSDGSFFLYSKLTVDKSRWQQGNVFSCSVMHEALHNRYTQKSLSLSP
chain 3: DIVMTQSPLSLPVTPGEPASISCRSSQSLVHSNRNTYLHWYQQKPGQAPRLLIYKVSNRFSGVPDRFSGSGSGTDFTLKISRVEAEDVGVYYCGQGTQVPYTFGQGTKLEIKRTVAAPSVFIFPPSDEQLKSGTASVVCLLNNFYPREAKVQWKVDNALQSGNSQESVTEQDSKDSTYSLSSTLTLSKADYEKHKVYACEVTHQGLSSPVTKSFNRGEC
B2: NNS6f52 (CE115HA340 with YMLGLG inserted between Kabat positions 99 and 100), one-arm antibody (antibody)
chain 1: QVQLVESGGGLVQPGRSLRLSCAASGFTFSNAWMHWVRQAPGKGLEWVAQIKDKSNNYATYYAESVKGRFTISRDDSKNSIYLQMNSLKTEDTAVYYCRYVHYAAYMLGLGYYGVDAWGQGTTVTVSSASTKGPSVFPLAPSSKSTSGGTAALGCLVKDYFPEPVTVSWNSGALTSGVHTFPAVLQSSGLYSLSSVVTVPSSSLGTQTYICNVNHKPSNTKVDKKVEPKSCDKTHTCPPCPAPEAAGGPSVFLFPPKPKDTLMISRTPEVTCVVVDVSHEDPEVKFNWYVDGVEVHNAKTKPREEQYASTYRVVSVLTVLHQDWLNGKEYKCKVSNKALPAPIEKTISKAKGQPREPQVYTLPPSRCELTKNQVSLSCAVKGFYPSDIAVEWESNGQPENNYKTTPPVLDSDGSFFLVSKLTVDKSRWQQGNVFSCSVMHEALHNHYTQKSLSLSPDYKDDDDK
chain 2: EPKSSDKTHTCPPCPAPELLGGPSVFLFPPKPKDTLMISRTPEVTCVVVDVSHEDPEVKFNWYVDGVEVHNAKTKPREEQYNSTYRVVSVLTVLHQDWLNGKEYKCKVSNKALPAPIEKTISKAKGQPREPQVCTLPPSRDELTKNQVSLWCLVKGFYPSDIAVEWESNGQPENNYKTTPPVLDSDGSFFLYSKLTVDKSRWQQGNVFSCSVMHEALHNRYTQKSLSLSP
chain 3: DIVMTQSPLSLPVTPGEPASISCRSSQSLVHSNRNTYLHWYQQKPGQAPRLLIYKVSNRFSGVPDRFSGSGSGTDFTLKISRVEAEDVGVYYCGQGTQVPYTFGQGTKLEIKRTVAAPSVFIFPPSDEQLKSGTASVVCLLNNFYPREAKVQWKVDNALQSGNSQESVTEQDSKDSTYSLSSTLTLSKADYEKHKVYACEVTHQGLSSPVTKSFNRGEC
B3: NNS6f50 (CE115HA340 with LTGGLG inserted between Kabat positions 99 and 100), one-arm antibody (antibody)
chain 1: QVQLVESGGGLVQPGRSLRLSCAASGFTFSNAWMHWVRQAPGKGLEWVAQIKDKSNNYATYYAESVKGRFTISRDDSKNSIYLQMNSLKTEDTAVYYCRYVHYAALTGGLGYYGVDAWGQGTTVTVSSASTKGPSVFPLAPSSKSTSGGTAALGCLVKDYFPEPVTVSWNSGALTSGVHTFPAVLQSSGLYSLSSVVTVPSSSLGTQTYICNVNHKPSNTKVDKKVEPKSCDKTHTCPPCPAPEAAGGPSVFLFPPKPKDTLMISRTPEVTCVVVDVSHEDPEVKFNWYVDGVEVHNAKTKPREEQYASTYRVVSVLTVLHQDWLNGKEYKCKVSNKALPAPIEKTISKAKGQPREPQVYTLPPSRCELTKNQVSLSCAVKGFYPSDIAVEWESNGQPENNYKTTPPVLDSDGSFFLVSKLTVDKSRWQQGNVFSCSVMHEALHNHYTQKSLSLSPDYKDDDDK
chain 2: EPKSSDKTHTCPPCPAPELLGGPSVFLFPPKPKDTLMISRTPEVTCVVVDVSHEDPEVKFNWYVDGVEVHNAKTKPREEQYNSTYRVVSVLTVLHQDWLNGKEYKCKVSNKALPAPIEKTISKAKGQPREPQVCTLPPSRDELTKNQVSLWCLVKGFYPSDIAVEWESNGQPENNYKTTPPVLDSDGSFFLYSKLTVDKSRWQQGNVFSCSVMHEALHNRYTQKSLSLSP
chain 3: DIVMTQSPLSLPVTPGEPASISCRSSQSLVHSNRNTYLHWYQQKPGQAPRLLIYKVSNRFSGVPDRFSGSGSGTDFTLKISRVEAEDVGVYYCGQGTQVPYTFGQGTKLEIKRTVAAPSVFIFPPSDEQLKSGTASVVCLLNNFYPREAKVQWKVDNALQSGNSQESVTEQDSKDSTYSLSSTLTLSKADYEKHKVYACEVTHQGLSSPVTKSFNRGEC
B4: NNS6f54 (CE115HA340 with FEWVGW inserted between Kabat positions 99 and 100), one-arm antibody (antibody)
chain 1: QVQLVESGGGLVQPGRSLRLSCAASGFTFSNAWMHWVRQAPGKGLEWVAQIKDKSNNYATYYAESVKGRFTISRDDSKNSIYLQMNSLKTEDTAVYYCRYVHYAAFEWVGWYYGVDAWGQGTTVTVSSASTKGPSVFPLAPSSKSTSGGTAALGCLVKDYFPEPVTVSWNSGALTSGVHTFPAVLQSSGLYSLSSVVTVPSSSLGTQTYICNVNHKPSNTKVDKKVEPKSCDKTHTCPPCPAPEAAGGPSVFLFPPKPKDTLMISRTPEVTCVVVDVSHEDPEVKFNWYVDGVEVHNAKTKPREEQYASTYRVVSVLTVLHQDWLNGKEYKCKVSNKALPAPIEKTISKAKGQPREPQVYTLPPSRCELTKNQVSLSCAVKGFYPSDIAVEWESNGQPENNYKTTPPVLDSDGSFFLVSKLTVDKSRWQQGNVFSCSVMHEALHNHYTQKSLSLSPDYKDDDDK
chain 2: EPKSSDKTHTCPPCPAPELLGGPSVFLFPPKPKDTLMISRTPEVTCVVVDVSHEDPEVKFNWYVDGVEVHNAKTKPREEQYNSTYRVVSVLTVLHQDWLNGKEYKCKVSNKALPAPIEKTISKAKGQPREPQVCTLPPSRDELTKNQVSLWCLVKGFYPSDIAVEWESNGQPENNYKTTPPVLDSDGSFFLYSKLTVDKSRWQQGNVFSCSVMHEALHNRYTQKSLSLSP
chain 3: DIVMTQSPLSLPVTPGEPASISCRSSQSLVHSNRNTYLHWYQQKPGQAPRLLIYKVSNRFSGVPDRFSGSGSGTDFTLKISRVEAEDVGVYYCGQGTQVPYTFGQGTKLEIKRTVAAPSVFIFPPSDEQLKSGTASVVCLLNNFYPREAKVQWKVDNALQSGNSQESVTEQDSKDSTYSLSSTLTLSKADYEKHKVYACEVTHQGLSSPVTKSFNRGEC
B5: NNS6f47 (CE115HA340 with HFMWWG inserted between Kabat positions 99 and 100), one-arm antibody (antibody)
chain 1: QVQLVESGGGLVQPGRSLRLSCAASGFTFSNAWMHWVRQAPGKGLEWVAQIKDKSNNYATYYAESVKGRFTISRDDSKNSIYLQMNSLKTEDTAVYYCRYVHYAAHFMWWGYYGVDAWGQGTTVTVSSASTKGPSVFPLAPSSKSTSGGTAALGCLVKDYFPEPVTVSWNSGALTSGVHTFPAVLQSSGLYSLSSVVTVPSSSLGTQTYICNVNHKPSNTKVDKKVEPKSCDKTHTCPPCPAPEAAGGPSVFLFPPKPKDTLMISRTPEVTCVVVDVSHEDPEVKFNWYVDGVEVHNAKTKPREEQYASTYRVVSVLTVLHQDWLNGKEYKCKVSNKALPAPIEKTISKAKGQPREPQVYTLPPSRCELTKNQVSLSCAVKGFYPSDIAVEWESNGQPENNYKTTPPVLDSDGSFFLVSKLTVDKSRWQQGNVFSCSVMHEALHNHYTQKSLSLSPDYKDDDDK
chain 2: EPKSSDKTHTCPPCPAPELLGGPSVFLFPPKPKDTLMISRTPEVTCVVVDVSHEDPEVKFNWYVDGVEVHNAKTKPREEQYNSTYRVVSVLTVLHQDWLNGKEYKCKVSNKALPAPIEKTISKAKGQPREPQVCTLPPSRDELTKNQVSLWCLVKGFYPSDIAVEWESNGQPENNYKTTPPVLDSDGSFFLYSKLTVDKSRWQQGNVFSCSVMHEALHNRYTQKSLSLSP
chain 3: DIVMTQSPLSLPVTPGEPASISCRSSQSLVHSNRNTYLHWYQQKPGQAPRLLIYKVSNRFSGVPDRFSGSGSGTDFTLKISRVEAEDVGVYYCGQGTQVPYTFGQGTKLEIKRTVAAPSVFIFPPSDEQLKSGTASVVCLLNNFYPREAKVQWKVDNALQSGNSQESVTEQDSKDSTYSLSSTLTLSKADYEKHKVYACEVTHQGLSSPVTKSFNRGEC
B6: NNS6f51 (CE115HA340 with GFLVLW inserted between Kabat positions 99 and 100), one-arm antibody (antibody)
chain 1: QVQLVESGGGLVQPGRSLRLSCAASGFTFSNAWMHWVRQAPGKGLEWVAQIKDKSNNYATYYAESVKGRFTISRDDSKNSIYLQMNSLKTEDTAVYYCRYVHYAAGFLVLWYYGVDAWGQGTTVTVSSASTKGPSVFPLAPSSKSTSGGTAALGCLVKDYFPEPVTVSWNSGALTSGVHTFPAVLQSSGLYSLSSVVTVPSSSLGTQTYICNVNHKPSNTKVDKKVEPKSCDKTHTCPPCPAPEAAGGPSVFLFPPKPKDTLMISRTPEVTCVVVDVSHEDPEVKFNWYVDGVEVHNAKTKPREEQYASTYRVVSVLTVLHQDWLNGKEYKCKVSNKALPAPIEKTISKAKGQPREPQVYTLPPSRCELTKNQVSLSCAVKGFYPSDIAVEWESNGQPENNYKTTPPVLDSDGSFFLVSKLTVDKSRWQQGNVFSCSVMHEALHNHYTQKSLSLSPDYKDDDDK
chain 2: EPKSSDKTHTCPPCPAPELLGGPSVFLFPPKPKDTLMISRTPEVTCVVVDVSHEDPEVKFNWYVDGVEVHNAKTKPREEQYNSTYRVVSVLTVLHQDWLNGKEYKCKVSNKALPAPIEKTISKAKGQPREPQVCTLPPSRDELTKNQVSLWCLVKGFYPSDIAVEWESNGQPENNYKTTPPVLDSDGSFFLYSKLTVDKSRWQQGNVFSCSVMHEALHNRYTQKSLSLSP
chain 3: DIVMTQSPLSLPVTPGEPASISCRSSQSLVHSNRNTYLHWYQQKPGQAPRLLIYKVSNRFSGVPDRFSGSGSGTDFTLKISRVEAEDVGVYYCGQGTQVPYTFGQGTKLEIKRTVAAPSVFIFPPSDEQLKSGTASVVCLLNNFYPREAKVQWKVDNALQSGNSQESVTEQDSKDSTYSLSSTLTLSKADYEKHKVYACEVTHQGLSSPVTKSFNRGEC

For the assay, the target named is T1, biotinylated CD3 epsilon epitope peptide (UniProt P07766 22-48, biotinylated).
T1 chain: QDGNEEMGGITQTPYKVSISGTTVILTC
Description: SPR (Biacore); biotinylated CD3 epsilon epitope peptide on chip via streptavidin, antibody as analyte. On the technique in general: In SPR one partner is held on a chip, and binding of the other changes the refractive index at the surface.
Take B1: the equilibrium dissociation constant (Kd) amounted to 90 nM.

Regarding B2, the Kd was determined as 52 nM.

Molecule B3 had a Kd of 71 nM.

In turn, B4 displayed a dissociation constant Kd of 29 nM.

In turn, B5 registered a Kd of 31 nM.

The molecule B6 gave a Kd of 31 nM. This lies in the double-digit nanomolar range.
